No end group written: not given here.
T1: neoepitope peptide (positions 37 to 44, C-terminal Cys) with positions 40 to 44 substituted with alanine (human, not fully specified)
T1 peptide: YFGAAAAAC

T2: peptide F38A (alanine variant of …) (human, not fully specified)
T2 construct: Position is counted on IL-18
T2 peptide: YAGKLESKC

T3: neoepitope peptide IL-18^37-44 with C-terminal cysteine (YFGKLESKC) (human, not fully specified)
T3 construct: also called IL-18^37-44 peptide; wild-type peptide
T3 peptide: YFGKLESKC

T4: activated IL-18 protein (IL-18^37-193) (human, UniProt Q14116 37-193)
T4 sequence (looked up): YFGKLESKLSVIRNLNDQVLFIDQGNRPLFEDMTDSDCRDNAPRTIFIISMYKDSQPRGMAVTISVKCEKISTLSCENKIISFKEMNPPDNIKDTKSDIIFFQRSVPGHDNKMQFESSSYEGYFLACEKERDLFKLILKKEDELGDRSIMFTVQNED

T5: peptide Y37A (alanine variant of …) (human, not fully specified)
T5 construct: Position is counted on IL-18
T5 peptide: AFGKLESKC

T6: neoepitope peptide (positions 37 to 44, C-terminal Cys) with positions 43 to 44 substituted with alanine (human, not fully specified)
T6 construct: Member of the successive alanine series, derived from the description of the series; Positions are counted on IL-18; also called peptide having the presence of lysine at position 40
T6 peptide: YFGKLEAAC

T7: neoepitope peptide (positions 37 to 44, C-terminal Cys) with positions 41 to 44 substituted with alanine (human, not fully specified)
T7 construct: Member of the successive alanine series, derived from the description of the series; Positions are counted on IL-18; also called peptide having the presence of lysine at position 40
T7 peptide: YFGKAAAAC

T8: neoepitope peptide (positions 37 to 44, C-terminal Cys) with positions 42 to 44 substituted with alanine (human, not fully specified)
T8 construct: Member of the successive alanine series, derived from the description of the series; Positions are counted on IL-18; also called peptide having the presence of lysine at position 40
T8 peptide: YFGKLAAAC

T9: peptide K44A (alanine variant of …) (human, not fully specified)
T9 construct: Position is counted on IL-18
T9 peptide: YFGKLESAC

T10: peptide E42A (alanine variant of …) (human, not fully specified)
T10 construct: Position is counted on IL-18
T10 peptide: YFGKLASKC

T11: peptide L41A (alanine variant of …) (human, not fully specified)
T11 construct: Position is counted on IL-18
T11 peptide: YFGKAESKC

T12: peptide G39A (alanine variant of …) (human, not fully specified)
T12 construct: Position is counted on IL-18
T12 peptide: YFAKLESKC

T13: peptide S43A (alanine variant of …) (human, not fully specified)
T13 construct: Position is counted on IL-18
T13 peptide: YFGKLEAKC

B1: monoclonal antibody 8-4.1 (antibody, V domains shown)
VH: LSITCTVSGFSLTSYGVHWVRQPPGKGLEWLGVIWAGGSTNYNSALMSRLSISKDNSKSQVFLKMNSLQTDDTAMYYCARESSYDAMDYWGQGTSVTVSS
VL: DIVITQSPKSMSMSVGERVTLTCKASENVVTYVSWYQQKPEQSPKLMIYGASNRYTGVPDRFTGSGSATDFTLTISSVQAEDLADYHCGQGYSYPYTFGGGTKLEIK
B2: monoclonal antibody 9-10.2 (antibody, V domains shown)
VH: SLTCSFSGFSLSSSGMGVGWIRQPSGKGLEWLAHIWWDDDKNYNPGLKSRLTISKDTSKNQVFLKIANVDTADAATYYCTRTRTYSNFGGGMAYWGQGTSVTVSS
VL: LGDQASISCRSSQSIAHSNGYTYLEWYLQTPGQSPKLLIYKVSNRFSGVPDRFSGSGSGTDFTLKISRVEAEDLGVYYCVQGSHVPLTFGAGTKLELK

Tests used:
[1] = target: T1, neoepitope peptide (positions 37 to 44, …); assay: ELISA on BSA-crosslinked peptide, neoepitope fine analysis; row YFGAAAAA
[2] = target: peptide K40A (alanine variant of …) (human, C-terminal Cys crosslinked to BSA in ELISA; thiol-coupled to sensor chip CM5 in SPR); assay: ELISA on BSA-crosslinked peptide, alanine scanning; row YFGALESK
[3] = target: T2, peptide F38A (alanine variant of …); assay: ELISA on BSA-crosslinked peptide, alanine scanning; row YAGKLESK
[4] = target: T3, neoepitope peptide IL-18^37-44 with …; assay: ELISA on BSA-crosslinked peptide, alanine scanning; row YFGKLESK (reference set as 100)
[5] = target: T4, activated IL-18 protein (IL-18^37-193); assay: cell-based or functional assay
[6] = target: T5, peptide Y37A (alanine variant of …); assay: ELISA on BSA-crosslinked peptide, alanine scanning; row AFGKLESK
[7] = target: T6, neoepitope peptide (positions 37 to 44, …); assay: ELISA on BSA-crosslinked peptide (neoepitope fine analysis)
[8] = target: T7, neoepitope peptide (positions 37 to 44, …); assay: as above
[9] = target: T8, neoepitope peptide (positions 37 to 44, …); assay: as above
[10] = target: T9, peptide K44A (alanine variant of …); assay: ELISA on BSA-crosslinked peptide, neoepitope fine analysis; row YFGKLESA
[11] = target: T8, neoepitope peptide (positions 37 to 44, …); assay: ELISA on BSA-crosslinked peptide, neoepitope fine analysis; row YFGKLAAA
[12] = target: T10, peptide E42A (alanine variant of …); assay: ELISA on BSA-crosslinked peptide, alanine scanning; row YFGKLASK
[13] = target: T11, peptide L41A (alanine variant of …); assay: ELISA on BSA-crosslinked peptide, alanine scanning; row YFGKAESK
[14] = target: T9, peptide K44A (alanine variant of …); assay: ELISA on BSA-crosslinked peptide, alanine scanning; row YFGKLESA
[15] = target: T12, peptide G39A (alanine variant of …); assay: ELISA on BSA-crosslinked peptide, alanine scanning; row [..]
[16] = target: T2, peptide F38A (alanine variant of …); assay: ELISA on BSA-crosslinked peptide (alanine scanning)
[17] = target: T13, peptide S43A (alanine variant of …); assay: as above
[18] = target: T9, peptide K44A (alanine variant of …); assay: as above
[19] = target: T7, neoepitope peptide (positions 37 to 44, …); assay: ELISA on BSA-crosslinked peptide, neoepitope fine analysis; row YFGKAAAA
[20] = target: T3, neoepitope peptide IL-18^37-44 with …; assay: ELISA on BSA-crosslinked peptide, neoepitope fine analysis; row YFGKLESK (reference set as 100)
[21] = target: T6, neoepitope peptide (positions 37 to 44, …); assay: ELISA on BSA-crosslinked peptide, neoepitope fine analysis; row YFGKLEAA
[22] = target: T13, peptide S43A (alanine variant of …); assay: ELISA on BSA-crosslinked peptide, alanine scanning; row YFGKLEAK
[23] = target: T3, neoepitope peptide IL-18^37-44 with …; assay: SPR, Biacore X100, peptide thiol-coupled to CM5, antibody 0.4-250 nM, single-cycle, bivalent analysis

Binder | ELISA absorbance relative to wild-type peptide (= 100) [1] | ELISA absorbance relative to wild-type peptide (= 100) [2] | ELISA absorbance relative to wild-type peptide (= 100) [3] | ELISA absorbance relative to wild-type peptide (= 100) [4] | ELISA absorbance relative to wild-type peptide (= 100) [6] | reactivity relative to the wild-type peptide [7] | reactivity relative to the wild-type peptide [8] | reactivity relative to the wild-type peptide [9] | ELISA absorbance relative to wild-type peptide (= 100) [10] | ELISA absorbance relative to wild-type peptide (= 100) [11] | ELISA absorbance relative to wild-type peptide (= 100) [12] | ELISA absorbance relative to wild-type peptide (= 100) [13] | ELISA absorbance relative to wild-type peptide (= 100) [14] | ELISA absorbance relative to wild-type peptide (= 100) [15] | percent binding relative to the wild-type peptide [16] | percent binding relative to the wild-type peptide [17] | percent binding relative to the wild-type peptide [18] | ELISA absorbance relative to wild-type peptide (= 100) [19] | ELISA absorbance relative to wild-type peptide (= 100) [20] | ELISA absorbance relative to wild-type peptide (= 100) [21] | also measured
B1 | 6 | 1.8 | 44 | 100 | 0.8 | ~0.25 fraction of wild-type peptide | ~0.25 fraction of wild-type peptide | ~0.25 fraction of wild-type peptide | 27 | 23 | 34 | 33 | 67 | 3.2 | ~50% | ~50% | ~50% | 27 | 100 | 56 | IC50 (read off the curve) [5]: ~0.6 µg; ELISA absorbance relative to wild-type peptide (= 100) [22]: 55
B2 | 5 | 2.6 | 50 | 100 | 0.3 | ~0.25 fraction of wild-type peptide | ~0.25 fraction of wild-type peptide | ~0.25 fraction of wild-type peptide | 44 | 13 | 20 | 14 | 39 | 2.5 | ~50% | ~50% | ~50% | 26 | 100 | 27 | Kd [23]: 0.19 nM; kon [23]: 210000 M⁻¹ s⁻¹; ELISA absorbance relative to wild-type peptide (= 100) [22]: 45

— patent US20210317200A1 (MABPROTEIN, published 2021)
